From patent publication US20220195051A1 (UNIVERSIT T Z RICH, published 2022)

Target: T1, human recombinant biotinylated FcRn (Immunitrack) (human, UniProt P55899 24-297, biotinylated (site not told))
T1 construct: Immobilised on a ProteOn NLC chip for SPR at pH 6.0; also called human FcRn; hFcRn
Test: SPR, human FcRn immobilised, IL-12Fc variants in solution, pH 6.0
Protocol: SPR was performed using the ProteOn XPR36 System (Bio-Rad Laboratories, Inc.), coating human recombinant biotinylated FcRn (Immunitrack) on a ProteOn NLC sensor chip to approximately 80 response units (RU). […] The dissociation time was 600 s. Analysis was performed using the ProteOn Manager software (Bio-Rad Laboratories, Inc.) using data normalization to the injection time, interspot background removal and build-in artefact removal function. Kd were calculated using the equilibrium analysis model.

T1 sequence (P55899 24-297): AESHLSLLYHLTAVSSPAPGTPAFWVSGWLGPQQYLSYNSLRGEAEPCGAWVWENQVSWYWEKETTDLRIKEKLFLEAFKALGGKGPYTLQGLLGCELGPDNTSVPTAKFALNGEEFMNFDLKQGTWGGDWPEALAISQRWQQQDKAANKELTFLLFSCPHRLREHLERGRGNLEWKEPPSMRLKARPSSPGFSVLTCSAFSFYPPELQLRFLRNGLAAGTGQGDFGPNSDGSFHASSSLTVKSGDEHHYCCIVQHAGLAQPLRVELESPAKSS

fold reduction of affinity against IL-12Fc WT: ~8 fold
B1: human IL-12Fc NHQ (Fc fusion)
chain: IWELKKDVYVVELDWYPDAPGEMVVLTCDTPEEDGITWTLDQSSEVLGSGKTLTIQVKEFGDAGQYTCHKGGEVLSHSLLLLHKKEDGIWSTDILKDQKEPKNKTFLRCEAKNYSGRFTCWWLTTISTDLTFSVKSSRGSSDPQGVTCGAATLSAERVRGDNKEYEYSVECQEDSACPAAEESLPIEVMVDAVHKLKYENYTSSFFIRDIIKPDPPKNLQLKPLKNSRQVEVSWEYPDTWSTPHSYFSLTFCVQVQGKSKREKKDRVFTDKTSATVICRKNASISVRAQDRYYSSSWSEWASVPCSRNLPVATPDPGMFPCLHHSQNLLRAVSNMLQKARQTLEFYPCTSEEIDHEDITKDKTSTVEACLPLELTKNESCLNSRETSFITNGSCLASRKTSFMMALCLSSIYEDLKMYQVEFKTMNAKLLMDPKRQIFLDQNMLAVIDELMQALNFNSETVPQKSSLEEPDFYKTKIKLCILLHAFRIRAVTIDRVMSYLNASKVDKRVESKYGPPCPPCPAPEFLGGPSVFLFPPKPKDTLMNSRTPEVTCVVVDVSQEDPEVQFNWYVDGVEVHNAKTKPREEQFNSTYRVVSVLTVLHQDWLNGKEYKCKVSNKGLPSSIEKTISKAKGQPREPQVYTLPPSPEEMTKNQVSLTCLVKGFYPSDIAVEWESNGQPENNYKTTPPVLDSDGSFFLYSRLTVDKSRWQEGNVFSCSVMHEALHNQYTQKSLSLSLGK
notes: mature; As m1 with I253N and H435Q (EU) in the Fc; also called NHQ variant; not shown: Gly-Ser-linker between p40 and p35
